T1: full-length cynomolgous DLL3 on HEK293 cells (cynomolgous, UniProt A0A2K5WSR1 27-585)
T1 construct: also called 293 cyno DLL3
T1 sequence: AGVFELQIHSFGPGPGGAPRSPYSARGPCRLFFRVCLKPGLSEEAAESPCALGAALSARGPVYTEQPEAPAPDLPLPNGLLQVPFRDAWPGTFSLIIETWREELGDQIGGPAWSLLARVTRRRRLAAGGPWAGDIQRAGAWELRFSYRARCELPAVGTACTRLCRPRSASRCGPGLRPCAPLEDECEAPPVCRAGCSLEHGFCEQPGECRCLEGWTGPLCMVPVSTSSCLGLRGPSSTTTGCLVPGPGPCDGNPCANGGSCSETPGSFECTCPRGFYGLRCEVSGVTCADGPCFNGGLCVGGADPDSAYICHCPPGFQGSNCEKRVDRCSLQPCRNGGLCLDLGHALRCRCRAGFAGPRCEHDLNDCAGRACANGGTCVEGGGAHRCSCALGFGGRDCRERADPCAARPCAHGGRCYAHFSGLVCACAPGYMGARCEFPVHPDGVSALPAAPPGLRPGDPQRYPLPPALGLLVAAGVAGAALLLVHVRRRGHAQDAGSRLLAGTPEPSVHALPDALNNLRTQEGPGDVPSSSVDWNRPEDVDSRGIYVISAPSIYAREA

T2: full-length human DLL3 on cells (human, UniProt Q9NYJ7 27-618)
T2 construct: also called hDLL3; 293 hDLL3
T2 sequence: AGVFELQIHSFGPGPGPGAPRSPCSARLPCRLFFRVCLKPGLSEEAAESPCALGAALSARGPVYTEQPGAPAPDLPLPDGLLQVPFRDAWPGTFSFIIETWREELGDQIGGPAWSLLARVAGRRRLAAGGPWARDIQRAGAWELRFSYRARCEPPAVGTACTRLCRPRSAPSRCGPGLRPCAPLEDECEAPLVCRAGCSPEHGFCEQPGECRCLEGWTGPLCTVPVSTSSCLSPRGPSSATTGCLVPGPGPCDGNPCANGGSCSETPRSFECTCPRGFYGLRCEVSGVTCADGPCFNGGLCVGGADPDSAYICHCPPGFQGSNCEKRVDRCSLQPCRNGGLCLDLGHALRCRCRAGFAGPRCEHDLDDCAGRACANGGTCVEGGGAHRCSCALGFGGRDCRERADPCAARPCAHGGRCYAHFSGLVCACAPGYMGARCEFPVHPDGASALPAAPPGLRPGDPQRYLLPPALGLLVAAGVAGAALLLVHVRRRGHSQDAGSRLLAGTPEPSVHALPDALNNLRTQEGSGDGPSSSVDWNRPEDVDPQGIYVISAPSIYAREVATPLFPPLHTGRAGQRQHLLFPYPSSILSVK

T3: full-length mouse DLL3 on HEK293 cells (mouse, UniProt O88516 33-584)
T3 construct: DLL3'; also called 293 mDLL3
T3 sequence: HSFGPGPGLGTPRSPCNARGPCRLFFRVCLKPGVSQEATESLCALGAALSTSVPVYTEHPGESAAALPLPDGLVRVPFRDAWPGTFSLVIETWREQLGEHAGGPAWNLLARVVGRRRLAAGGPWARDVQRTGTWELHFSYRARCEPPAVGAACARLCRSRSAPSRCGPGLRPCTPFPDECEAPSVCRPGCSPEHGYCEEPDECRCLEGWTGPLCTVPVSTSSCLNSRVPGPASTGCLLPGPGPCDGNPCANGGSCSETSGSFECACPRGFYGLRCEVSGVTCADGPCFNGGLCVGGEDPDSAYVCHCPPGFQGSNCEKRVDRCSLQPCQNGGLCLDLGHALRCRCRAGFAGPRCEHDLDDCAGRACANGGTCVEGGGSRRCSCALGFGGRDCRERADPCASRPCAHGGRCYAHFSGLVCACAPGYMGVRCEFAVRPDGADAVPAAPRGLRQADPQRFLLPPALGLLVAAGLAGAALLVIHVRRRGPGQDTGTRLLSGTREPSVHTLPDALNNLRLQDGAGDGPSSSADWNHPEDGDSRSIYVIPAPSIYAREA


Key:
[1] = biological target: T1, full-length cynomolgous DLL3 on HEK293 …; assay: flow cytometry, HEK293 cells transfected with full-length cynomolgous DLL3, mAb 10 µg/ml
Description: (§1) For this purpose, HEK293 cells were transfected with plasmid DNA encoding full-length human, mouse or cynomolgous DLL3 and used in the experiment. Briefly […] transfected HEK293 cells or NCI-H82 primary cells were added in FACS buffer PBS 0.5% BSA to the wells of a 96 well U bottom plate and purified monoclonal added to 10 μg/ml. After 30 minutes incubation at 4° C. the cells were washed 3 times in FACS buffer and incubated with a PE labelled F(ab)2 anti-mouse IgG H and L 2nd stage. After another 30 minutes incubation at 4° C. the cells were washed three times in FACS buffer and analyzed on the flow cytometer. Data are presented at the ratio of the Mean Fluorescent Intensity for the monoclonal divided by the background staining with the 2nd stage.

[2] = biological target: T2, full-length human DLL3 on cells; assay: flow cytometry, NCI-H82 cells (endogenous human DLL3), mAb 10 µg/ml
Description: as §1

[3] = biological target: T2, full-length human DLL3 on cells; assay: cell-based or functional assay
[4] = biological target: T2, full-length human DLL3 on cells; assay: cell-based or functional assay; remark: listed apart in the source
[5] = biological target: T2, full-length human DLL3 on cells; assay: flow cytometry, HEK293 cells transfected with full-length human DLL3, mAb 10 µg/ml
Description: as §1

[6] = biological target: T3, full-length mouse DLL3 on HEK293 cells; assay: flow cytometry, HEK293 cells transfected with full-length mouse DLL3, mAb 10 µg/ml
Description: as §1

[7] = biological target: T2, full-length human DLL3 on cells; assay: cell-based or functional assay; remark: listed apart in the source

Binder | ratio of the Mean Fluorescent Intensity for the monoclonal divided by the background staining with the 2nd stage [1] | ratio of the Mean Fluorescent Intensity for the monoclonal divided by the background staining with the 2nd stage [2] | FAB ZAP % SC16 Max Killing (NCI-H82 cells) [3] [% SC16 Max Killing] | MFI Ratio (4°C / 37°C staining of NCI-H82 cells; relative measure of internalization) [4] | ratio of the Mean Fluorescent Intensity for the monoclonal divided by the background staining with the 2nd stage [5] | ratio of the Mean Fluorescent Intensity for the monoclonal divided by the background staining with the 2nd stage [6] | Dy light Dy650 fluorescence in the quenching internalization assay on NCI-H82 cells (% of the Control Reference Monoclonal Antibody) [7]
2-C8-A (antibody, V domains shown, also called 2-C8-A monoclonal antibody) VH: EVQLVESGGGLVQPGGSQRLSCAASGFTFSSYWMNWVRQAPGKGLEWVANIKEDGSEKYYVDSVKGRFTISRDNAKNSLYLQMNSLRAEDTAVYYCARDPGWAPFDYWGQGTLVTVSS VL: DIQMSQSPSSLSASVGDRVTITCRASQGISNYLAWFQQKPGKAPKSLIYAASSLQSGVPSKFSGSGSGTDFTLAISSLQPEDFATYYCQQYNSFPYTFGQGTTLEIK | 15 | 11.9 | 89 | 1.76 | 7.71 | 1.5 | 62.9 % of the Control Reference Monoclonal Antibody
7-I1-B (antibody, V domains shown, also called 7-I1-B mAb) VH: EVQLVESGGGLVKPGGSLRLSCAASGFTFSNTWMSWVRQAPGKGLEWVGRIKSKSDGGTTDYAAPVKGRFTISRDDSKNTLYLQMNSLKTEDTAVYYCTQYYWNSFDYWGQGTLVTVSS VL: not shown | 18.7 | 19.2 | 97 | 1.68 | 9.74 | 4.7 | 70.1 % of the Control Reference Monoclonal Antibody
10-O18-A (antibody, V domains shown, Hybridoma monoclonal from Ablexis AlivaMAb Kappa mice; it was captured on anti-mouse Fc sensors and detected with anti-mouse IgG / anti-mouse IgG1 reagents; also called 10-O18-A monoclonal antibody) VH: QVQLQESGPGLVKPSETLSLTCTVSGGSINSYYWSWIRQPPGKGLEWIGYIFYSGITNYNPSLKSRVTISLDTSKNQFSLKLSSVTAADTAVYYCARIGVAGFYFDYWGQGTLVTVSS VL: not shown | 9.85 | 9.4 | – | 1.56 | 4.74 | 0.99 | –
6-G23-F (antibody, V domains shown, also called 6-G23-F monoclonal antibody) VH: QVQLVQSGAEVKKPGASVKVSCKASGYTFTSYYIHWVRQAPGQGLEWMGIIDPSDGSTNYAQKFQGRVTMTRDTSTSTVYMELSSLRSEDTAVYYCARDREYNYYGLDVWGQGTTVTVSS VL: not shown | 13.1 | 11.1 | 94 | 1.67 | 6.33 | 3.97 | 76.5 % of the Control Reference Monoclonal Antibody

Source: patent US20240115720A1 (Memorial Sloan Kettering, published 2024)
